Source: patent publication US20250320305A1 (Hoffmann-La Roche, published 2025)

Assays:
[1] = target: T1, human CD40 extracellular domain with C-terminal His-AviTag (human, UniProt P25942 21-193); experiment: SPR, antibody captured, CD40 ECD analyte;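 further: biacore SPR at 25 °C in PBS-T pH 7.4, CD40 ECD analyte from 300 nM in 1:3 series, 300 s association, up to 1200 s dissociation, double-referenced, Langmuir 1:1 fit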
T1 construct: not shown: C-terminal His-AviTag

[2] = target: T2, human CD40 expressed on cells (human, UniProt P25942 21-277); experiment: flow cytometry, Raji cells;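 further: cell binding of antibodies to Raji cells detected by flow cytometry using an Alexa488-labelled anti-human IgG secondary antibody, primary incubation 1 h at 4 °C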
T2 construct: also called huCD40; Raji cells
Protocol: CD40 positive cells (Raji cells) were detatched from the culture bottle using Trypsin and were counted using a Casy cell counter. After pelleting at 4° C., the cells were resuspended in FACS Buffer (2.5% FCS in PBS), adjusted to 2.0E+06 cells/mL, and dispensed to 96-well PP V-bottom-plates (25 μL/well=5.0E+04Zellen/well).
The CD40 specific antibodies were adjusted to 20 μg/mL in FACS buffer, resulting in a final concentration of 10 μg/mL. 20 μl were added to 25 μl cell suspension and incubated for 1 h at 4° C. The cells were then washed twice in FACS buffer. After washing, the cells were resuspended in 50 μL FACS-buffer containing secondary antibody (<huIgG>-Alexa488, c=10 μg/mL) and incubated 1 h bei 4° C. The cells were then washed twice in FACS buffer and resuspended in 70 μl/well FACS buffer for measurement using a FACS Canto (BD, Pharmingen).

Binder | Kd [1] | koff [1] | kon [1] | EC50 [2]
P1AE0817, humanized anti-CD40 antibody VH1a/VL1a, huIgG1_LALA_PG (antibody, V domains shown) VH: QVQLVQSGAEVKKPGASVKVSCKASGYSFTGYYIHWVRQAPGQSLEWMGRVIPNAGGTSYNQKFKGRVTLTVDKSISTAYMELSRLRSDDTAVYYCAREGIYWWGQGTTVTVSS VL: DIVMTQTPLSLSVTPGQPASISCRSSQSLVHSNGNTFLHWYLQKPGQSPQLLIYTVSNRFSGVPDRFSGSGSGTDFTLKISRVEAEDVGVYFCSQTTHVPWTFGGGTKVEIKR | 2.5 nM | 0.00593 s⁻¹ | 2.4e+06 M⁻¹ s⁻¹ | 0.09 µg/mL
P1AE0993, humanized anti-CD40 antibody VH1a/VL1c, huIgG1_LALA_PG (antibody, V domains shown, huIgG1 with effector silent Fc (P329G, L234A, L235A)) VH: QVQLVQSGAEVKKPGASVKVSCKASGYSFTGYYIHWVRQAPGQSLEWMGRVIPNAGGTSYNQKFKGRVTLTVDKSISTAYMELSRLRSDDTAVYYCAREGIYWWGQGTTVTVSS VL: DVVVTQTPLSLSVTPGQPASISCRSSQSLVHSNGNTFLHWYLQKPGQSPQLLIYTVSNRFSGVPDRFSGSGSGTDFTLKISRVEAEDVGVYFCSQTTHVPWTFGGGTKVEIK | 3.4 nM | 0.00898 s⁻¹ | 2.68e+06 M⁻¹ s⁻¹ | 0.13 µg/mL
P1AE0999, humanized anti-CD40 antibody VH1d/VL1a, huIgG1_LALA_PG (antibody, V domains shown, huIgG1 with effector silent Fc (P329G, L234A, L235A)) VH: QVQLVQSGAEVKKPGASVKVSCKASGYSFTGYYIHWVRQAPGQSLEWMGRVIPNAGGTSYNQKFKGRVTLSVDKSISTAYMELSRLRSDDTAVYYCAREGIYWWGQGTTVTVSS VL: DIVMTQTPLSLSVTPGQPASISCRSSQSLVHSNGNTFLHWYLQKPGQSPQLLIYTVSNRFSGVPDRFSGSGSGTDFTLKISRVEAEDVGVYFCSQTTHVPWTFGGGTKVEIK | 2.4 nM | 0.00592 s⁻¹ | 2.45e+06 M⁻¹ s⁻¹ | 0.15 µg/mL
P1AE1002, humanized anti-CD40 antibody VH1b/VL1a, huIgG1_LALA_PG (antibody, V domains shown, huIgG1 with effector silent Fc (P329G, L234A, L235A)) VH: QVQLVQSGAEVKKPGASVKVSCKASGYSFTGYYIHWVRQAPGKSLEWMGRVIPNAGGTSYNQKFKGRVTLTVDKSISTAYMELSRLRSDDTAVYYCAREGIYWWGQGTTVTVSS VL: DIVMTQTPLSLSVTPGQPASISCRSSQSLVHSNGNTFLHWYLQKPGQSPQLLIYTVSNRFSGVPDRFSGSGSGTDFTLKISRVEAEDVGVYFCSQTTHVPWTFGGGTKVEIK | 2.2 nM | 0.00557 s⁻¹ | 2.54e+06 M⁻¹ s⁻¹ | 0.13 µg/mL

More lines, in order of falling Kd [1], values ahead:

Kd [1] | koff [1] | kon [1] | EC50 [2] | Binder
3.5 nM | 0.00908 s⁻¹ | 2.59e+06 M⁻¹ s⁻¹ | 0.12 µg/mL | P1AE0996, humanized anti-CD40 antibody VH1a/VL1d, huIgG1_LALA_PG (antibody, V domains shown, huIgG1 with effector silent Fc (P329G, L234A, L235A)) VH: QVQLVQSGAEVKKPGASVKVSCKASGYSFTGYYIHWVRQAPGQSLEWMGRVIPNAGGTSYNQKFKGRVTLTVDKSISTAYMELSRLRSDDTAVYYCAREGIYWWGQGTTVTVSS VL: DVVVTQTPLSLSVTPGQPASISCRSSQSLVHSNGNTFLHWYLQKPGQSPQLLIYTVSNRFSGVPDRFSGSGSGTDFTLKISRVEAEDVGVYFCSQTTHVPWTFGGGTKLEIK
3.4 nM | 0.00877 s⁻¹ | 2.59e+06 M⁻¹ s⁻¹ | 0.11 µg/mL | P1AE0819, humanized anti-CD40 antibody VH1d/VL1d, huIgG1_LALA_PG (antibody, V domains shown, huIgG1 with effector silent Fc (P329G, L234A, L235A)) VH: QVQLVQSGAEVKKPGASVKVSCKASGYSFTGYYIHWVRQAPGQSLEWMGRVIPNAGGTSYNQKFKGRVTLSVDKSISTAYMELSRLRSDDTAVYYCAREGIYWWGQGTTVTVSS VL: DVVVTQTPLSLSVTPGQPASISCRSSQSLVHSNGNTFLHWYLQKPGQSPQLLIYTVSNRFSGVPDRFSGSGSGTDFTLKISRVEAEDVGVYFCSQTTHVPWTFGGGTKLEIK
3.2 nM | 0.00847 s⁻¹ | 2.63e+06 M⁻¹ s⁻¹ | 0.14 µg/mL | P1AE0818, humanized anti-CD40 antibody VH1c/VL1c, huIgG1_LALA_PG (antibody, V domains shown, huIgG1 with effector silent Fc (P329G, L234A, L235A)) VH: QVQLVQSGAEVKKPGASVKVSCKASGYSFTGYYIHWVRQAPGQSLEWMGRVIPNAGGTSYNQKFKGRVTLTVDKSISTAYMELSRLRSDDTAVYYCAREGIYWWGHGTTVTVSS VL: DVVVTQTPLSLSVTPGQPASISCRSSQSLVHSNGNTFLHWYLQKPGQSPQLLIYTVSNRFSGVPDRFSGSGSGTDFTLKISRVEAEDVGVYFCSQTTHVPWTFGGGTKVEIK
3.2 nM | 0.00862 s⁻¹ | 2.68e+06 M⁻¹ s⁻¹ | 0.14 µg/mL | P1AE1000, humanized anti-CD40 antibody VH1d/VL1c, huIgG1_LALA_PG (antibody, V domains shown, huIgG1 with effector silent Fc (P329G, L234A, L235A)) VH: QVQLVQSGAEVKKPGASVKVSCKASGYSFTGYYIHWVRQAPGQSLEWMGRVIPNAGGTSYNQKFKGRVTLSVDKSISTAYMELSRLRSDDTAVYYCAREGIYWWGQGTTVTVSS VL: DVVVTQTPLSLSVTPGQPASISCRSSQSLVHSNGNTFLHWYLQKPGQSPQLLIYTVSNRFSGVPDRFSGSGSGTDFTLKISRVEAEDVGVYFCSQTTHVPWTFGGGTKVEIK
2.3 nM | 0.00603 s⁻¹ | 2.59e+06 M⁻¹ s⁻¹ | 0.12 µg/mL | P1AE0997, humanized anti-CD40 antibody VH1c/VL1a, huIgG1_LALA_PG (antibody, V domains shown, huIgG1 with effector silent Fc (P329G, L234A, L235A)) VH: QVQLVQSGAEVKKPGASVKVSCKASGYSFTGYYIHWVRQAPGQSLEWMGRVIPNAGGTSYNQKFKGRVTLTVDKSISTAYMELSRLRSDDTAVYYCAREGIYWWGHGTTVTVSS VL: DIVMTQTPLSLSVTPGQPASISCRSSQSLVHSNGNTFLHWYLQKPGQSPQLLIYTVSNRFSGVPDRFSGSGSGTDFTLKISRVEAEDVGVYFCSQTTHVPWTFGGGTKVEIK
